# Laboratory results taken from patent publication US20030232757A1.
# T1: CryET39 crystal protein (Bacillus thuringiensis delta-endotoxin, approximately 44-kDa) (Bacillus thuringiensis (strain EG5899))
# T1 sequence: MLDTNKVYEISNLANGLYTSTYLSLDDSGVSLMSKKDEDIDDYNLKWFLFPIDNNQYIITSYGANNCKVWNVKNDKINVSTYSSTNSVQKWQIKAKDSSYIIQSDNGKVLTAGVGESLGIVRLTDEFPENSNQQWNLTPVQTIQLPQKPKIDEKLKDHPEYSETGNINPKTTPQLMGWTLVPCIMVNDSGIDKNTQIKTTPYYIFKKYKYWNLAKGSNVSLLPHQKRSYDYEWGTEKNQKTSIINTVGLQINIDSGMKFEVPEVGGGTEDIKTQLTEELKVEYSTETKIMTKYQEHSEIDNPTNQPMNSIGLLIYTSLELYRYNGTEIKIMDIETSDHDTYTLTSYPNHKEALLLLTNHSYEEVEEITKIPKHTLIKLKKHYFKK
# Target: T1, CryET39 crystal protein (Bacillus thuringiensis delta-endotoxin, approximately 44-kDa) (Bacillus thuringiensis (strain EG5899))
# Test: cell-based or functional assay
binder,measurement,value
"CryET74 crystal protein (Bacillus thuringiensis delta-endotoxin, approximately 13-15-kDa) (protein) MSAREVHIEINNKTRHTLQLEDKTKLSGGRWRTSPTNVARDTIKTFVAESHGFMTGVEGIIYFSVNGDAEISLHFDNPYIGSNKCDGSSDKPEYEVITQSGSGDKSHVTYTIQTVSLRL","Percent Control (WCRW larval mortality corrected for diluent control); 50:50 mixture EG11935 (CryET74) + EG11937 (1) (CryET39), dose 80 µg/well (percent control)",100
same,"Percent Control (WCRW larval mortality corrected for diluent control); 50:50 mixture EG11935 (CryET74) + EG11937 (1) (CryET39), dose 160 µg/well (percent control)",100
same,"Percent Control (WCRW larval mortality corrected for diluent control); 50:50 mixture EG11935 (CryET74) + EG11937 (2) (CryET39), dose 80 µg/well (percent control)",100
same,"Percent Control (WCRW larval mortality corrected for diluent control); 50:50 mixture EG11935 (CryET74) + EG11937 (2) (CryET39), dose 160 µg/well (percent control)",93.3
same,"Percent Control (WCRW larval mortality corrected for diluent control); EG11936 (CryET39 + CryET74 co-expressed), dose 80 µg/well (percent control)",100
same,"Percent Control (WCRW larval mortality corrected for diluent control); EG11936 (CryET39 + CryET74 co-expressed), dose 160 µg/well (percent control)",100
